Experimental findings from the DeepSol protein solubility set are described below.

The nature of this data set: soluble on expression in E. coli; label from the status in PepcDB or PDB records.
For “AHHHHHHGSPRLIKDRVPTPERSVGERVRDFGEVNLGYSWELALREAERCLQCPVEYAPCIKGCPVHINIPGFIKALRENRDNPSKAVREALRIIWRDNTLPAITGRVCPQEEQCEGACVVGKVGDPINIGKLERFVADYAREHGIDDELLLEEIKGIKRNGKKVAIIGAGPAGLTCAADLAKMGYEVTIYEALHQPGGVLIYGIPEFRLPKEIVKKELENLRRLGVKIETNVLVGKTITFEELREEYDAIFIGTGAGTPRIYPWPGVNLNGIYSANEFLTRINLMKAYKFPEYDTPIKVGKRVAVIGGGNTAMDAARSALRLGAEVWILYRRTRKEMTAREEEIKHAEEEGVKFMFLVTPKRFIGDENGNLKAIELEKMKLGEPDESGRRRPIPTGETFIMEFDTAIIAIGQTPNKTFLETVPGLKVDEWGRIVVDENLMTSIPGVFAGGDAIRGEATVILAMGDGRKAAKAIHQYLSKEK”, the “soluble on expression in E. coli” value is recorded as “soluble”.

On to “AHHHHHHGSQRLEESTSCRGVGDMRKAIIVGVGMTPVGEHWRSSLRDLAVEAILNAMDDAGIDKVDSLYVGNMASGSFVEQENLGALIADWAGLGNIPAVKIEAACASGGAAVQEGAKAVLSGLEDVVLVVGVEKMTDAWPSDATRYLGYAADAEWELFHGASFVALNALIMRLYMNTYGYKEEDLALFAVNAHANGAKNPYAMFKKPITVETVMKSPYIADPLKLFDASPVCDGAAAVIITTPEKAKELGIPKDKWIEIAGMGRAIDTINLANREDFLTLKAATIAAERAYKMAGVKPEDVDFFEVHDAFTVMAALSLEALGVAKKGEGAKLAIEGQIAIDGDYPIQTMGGLKARGHPVGATGVYQVVEAVLQLRGEAPDGIQVPDAEVGLTQNIGGTGSNITVTVLRRV”, for which the “soluble on expression in E. coli” value is listed as “soluble”.

In the case of “AHHHHHHGSTWREILRKEGFLDLGEFIVELVYIDCPCEPIPPTLAIYDKKGDEWYKVEEAPNVQNYREAVEWAIEVLERIRDGENVKLVSLDGPAPPKVMKRLSLALQKLTE”, the “soluble on expression in E. coli” value was “not soluble”.

Consider “AIAEHKEVVLLLLLFLKSGQGEPLDDYVNTQGPSLFSVTKKQLGAGSREECAAKCEEDKEFTCRAFQYHSKEQQCVIMAENRKSSIIIRMRDAVLFEK”, for which the “soluble on expression in E. coli” value is given as “soluble”.

For the sequence “AIAEVLRPPLININGRIYRKNPVQEETYEEEEEDCSYSEAAVDQCLDEPCDAHNIEQTDRGFRCALDVPSVLYKYIIGKKGETRRRLESETKTSINIPKQGVEGQIVVTGAHRPSVSSAVTRIEVLIDSFRRKQPFTHFLSFALNHAQVREGFLRFREEVLEHCSQDSGVDVSIFQNPDKLHLTIGTLVLLNQQEVTRANELLHQCQDTIREITGAEALPVEVRGVEYMNDDPSMVDVLYAKVSVQDGSDRLQQISDRLVECFVSAGLMERERDRVKIHATVMNTLFRRDPSAEDRGAPARANPRDREAFNGKNILQMFGDFYFGAFELNSVQISQRFSTDSSGYYSSAGHITFS”, the “soluble on expression in E. coli” value is listed as “soluble”.

With “AIAGNTTSERVSGERHGAKAARAEGGGHGPGKEHKIMVGSTDDPSVFSLPDSKLPGDKEFVPWQQDLDDSVKPAQQARPTVIRWSEGGKEVFISGSFNNWSTKIPLIKSHNDFVAILDLPEGEHQYKFFVDGQWVHDPSEPVVTSQLGTINNLIHVKKSDFEVFDALKLDSMESSETSCRDLSSSPPGPYGQEMYVFRSEERFKSPPILPPHLLQVILNKDTNISCDPALLPEPNHVMLNHLYALSIKDSVMVLSATHRYKKKYVTTLLYKPI”, the “soluble on expression in E. coli” value was “soluble”.

As for “AIANCCIGLGEKARGSHRASYPSLSALFTEASILGFGSFAVKAQWTEDCRKSTYPPSGPTVFPAVIRYRGAVPWYTINLDLPPYKRWHELMLDKAPVPGLLGNFPGPFEEEMKGIAAVTDIPLGEIISFNIFYELFTVCTSIVAEDKKGHLIHGRNMDFGVFLGWNINNDTWVITEQLKPLTVNLDFQRNNKTVFKASSFAGYVGMLTGFKPGLFSLTLNERFSINGGYLGILEWILGKKDAMWIGFLTRTVLENSTSYEEAKNLLTKTKILAPAYFILGGNQSGEGCVITRDRKESLDVYELDAKQGRWYVVQTNYDRWKHPFFLDDRRTPAKMCLNRTSQENISFETMYDVLSTKPVLNKLTVYTTLIDVTKGQFETYLRDCPDPCIGW”, the “soluble on expression in E. coli” value is “soluble”.

As to “AIANFNDAKNEILQVLSKTERQHLPKLLEWIKTSDDLDDILVDNQSVILHSIAEDLRACLPMEAMAPSETLAMQKTQQKAHPTVHVDAFLYDDETVDSLCEEGKMSRTYCLNCGSHRTAPLEFISHSFSIPELQFLFHNVLPELTGKLVLDVGSRLGAVLFGGYLYSAASQLVGVEMSSEFVKLQSMAVEKYGFSDRIQVIHADIRSQIALVQKADVLIMNNVFEYFMEPRDQMQAWLYISQNFRKKGALLVTVPSIQEALGLLQDAAFLETLSLSQWIEEIPVDYSVYLKNDTDPDSLKQIHLYRVL”, the “soluble on expression in E. coli” value is recorded as “soluble”.

In the case of “AIAPGRKRKLAAKTAELAPEAGEGSESTSLVGSADASASTAAGVAHTEQQEMPSGGLHESFLESIPPAASFLEELAWVESLASPSYVAYLCQMRRFDDVVAQRRLTTLQRWRQDPAYRQHVSQPIALFFLEQLCSAEFREALRHPAVAALYERQVDLYRRCYGNLLNTGESRVLR”, the “soluble on expression in E. coli” value is “soluble”.

For the sequence “AIASCGKPQETYSTSSILTREQFEIQHQEEDTIGEQVIFIDGVAYNSRGFRVCGAPNQRGGFCARFGQCPFHKDKVTTFKMSEETVSEFPRQLLTESCNLLQNNERKFKNAWKLDEHHRFLVALKKFGHGNWRQIADYVETRSASQCQSHAQKYYLRKRKLASNANLKRSIFDLIDEDTLSVEIGEEDTWNIIQKCPSKEAQGSVRSRSKTLQRMSTDSSVESYPIRELSTVDSELSTLQTYKQASFFIRIFRNGVFSHGVDLELPNSLASFFIKAAQLLDMSVATKAYTRSGFEISSLHEVCPGDILWISSGEEFIFPSPVQYIET”, the “soluble on expression in E. coli” value is recorded as “soluble”.

Take “AIASDKYIGDSHLEETGEEKQDSQEKEAVTPEKAEEQKLKAKYPNLGQKPGGSDFLMKRLQKGQKYFDSGDYNMAKAKIKNKQLPCAGPDKNLVTGDHIPTPQDLPQRKSSLVTSKLAGHVEDLHHV”: the “soluble on expression in E. coli” value is listed as “soluble”.

With “AIASFRTCHNWFPLCLLLKETNNDISGEGIYSSRSELFQQPLAKETQRWSTGPSFVKHYGRLKRHSLPAVHFFDNSQSFLQNLQPNETFPETTTLDWKELENATRLLNDFMESASEDGDSLFDDEFPTMHAKTKLQDGLSTHPQSPPSDITQSVLSNTQSPVPSMLSETELPDFGEDFVNANEELVS”, the “soluble on expression in E. coli” value is “soluble”.

Regarding “AIASQFDPDKFKQEQKARWNQGARSTWTLWKQTQVEDTPAKFFLGLVPIRPGVKVLDLACGSGETSLQVAQLVSSHLPSDSKDAKIVCVDISEEMLRVLSQRAQELGLSSVVETCCEDAENINFGTHYFDMVMSQFGVMFLPHLPEDLANIRKMMKPGSLFCCVVWGEEKDCHIFYAARSVVSPPPPPPGTPVSYGTKEKVMEALRKAEFSDVKAVEFQVVHETKDAEEYITLMSGVNQWLEKSLGEKGSGPWQKLVEYCNNSYRTSRGTLQFPNVCVGITAIA”, the “soluble on expression in E. coli” value is “soluble”.

As to “AIATGVYADAVLVSVTVGDTVTLHTAGVKNLQPADVKWYFNDIRIAQLDGDLRFNCTDIQCNDRTEIFIDRLRLDRKTGALTIVNITNTHSGVYQLVVIGGGGTIFNVTVHDDPATHYNQVKKNQGESVTFNPGVRRDLIVVLKCLLNNTLIAEISVNQSQICADVQCKERFTDRLKLDNESASLTITNTNITDSGNYTSVILISSDRRFSITREKRFSLTVTSLSSSQPSGGAIAGIVVMLLLLL”, the “soluble on expression in E. coli” value was “soluble”.

As for “AIIVKKTTEIEQTHKDYDPYQILGLDQGADEKAIKKAWRDMSKIHHPDRGGDAQFFDKIAKAHQALTDKEARENWEKYGNPDGPTATTFGIALPKWLVSKEYGL”, the “soluble on expression in E. coli” value is recorded as “not soluble”.

Consider “AISQDYNINMSGGNDKGTYYAGLGYNRQEGLPIKTFYERYSFVLNASYKITDWLTSSSNFNYNRANWKNMPGSQTSEGNYFGRIMSTPPTVRFQDEDGNPTLGPVAGDGNQNYQPDKWWNFNQSDKFTMVQAFQIDILKNLSVKGTANWYYSESLAESFTRDYENTPGQFVRTRSSSASFSRNFSQTYNVVLNYNQTFAKDHNVAVMLGMEYFDRYSRSFSASGSGAPTDDFADLSLTDNGEGKRSIDSGHSDYRILSYFGRLNYDYKGRYLLSAVFRQDGYSSLLGDNRWGFFPGVSAGWIFGQENFVKNALPFLSFGKLRASYGVNGNATGIGAYDLQGSYNSQKYNGNVGFLIGALPNPGLKWEKTRTAEVGIDMSFFENRLNANFTYYNRLTSDKYANLSLPSTTGFSSIKNNNGKFRNSGVEIELSGKILKTKDWSWDLGGNISFNKNKIVSLPDNGLIRNQQDAAQIYSGRQLSDGTYEKIWVGGNQEGYEPGVLIAYKADGLYRSWDEIPGDLVVTSGNYFGKKMYGPEAWKKLSSAEQKNALPIQPGDVKWRDINGDGMIDNYDQVVVGNTNPHWIGGFNTTLRWKNFQLYGRFDFAFDYWIYDNTTPWFLGCMQGTYNTTKDVFNTWSEENPNAKYPRFVYADQLMNANYYRTSTLFAYKGNYLAIREISLSYSLPKAWANKAYCQKVDVSITGQNLGYITSANVASPEVSSAGSGYALPRTLLFGLNVTF”, for which the “soluble on expression in E. coli” value is listed as “not soluble”.

On to “AKVEVGDEVGNFKFYPDSITVSAGEAVEFTLVGETPHNIVFDIPAGAPGTVASELKAASMDENDLLSEDEPSFKAKVSTPGTYTFYCTPHKSANMKGTLTVK”, for which the “soluble on expression in E. coli” value is listed as “soluble”.

Turning to “ALAKRIDAALILKDGRVVKGSNFENLRDSGDPVELGKFYSEIGIDELSFWDITASVEKRKTMLELVEKVAEQIDIPITVGGGIYDFETASELILRGADKVEINTAAVENPSLITQIAQTFGSQAVVVYIAAKRVDGEFMVFTYSGTKNTGILLRDWVVEVEKRGAGEIVLGSIDRLGTKSGYDTEMIRFVRPLTTLPIIAHRGAGKTEHFLEAFLAGADAAKADSVFHSREIDVRELKEYLKKHGVNVRLEGLGSLEHHHHHH”, the “soluble on expression in E. coli” value is on record as “soluble”.

Turning to “ALIIVSGSEGRIEKAQNIAQLLSSRGYICLAIAYFGLEGLPKHLKRIPLECLVEAKSYLRQYPQVDSERIGIYGRSKGAELVLAEESIFNDVQCLVLNSPSDVVDEGIIGKWNSHTSSWTHLQKELPYQKFRFRDYLFSKLFRKDFPKDCSARIDIGQMHSPILLLESTVDEIWDASSAIDDIVSHYKGHYITFKKYHETGHMLTVAYQPNHRYRKDWHLLMKESEDSWLATIHFFDRHLK”, the “soluble on expression in E. coli” value is reported as “not soluble”.

With “AMGTKSSAAVALKGLQFVTAKVGNDGWAAVEKRFNQLQVDGVLLRSRFGKCIGMDGSDEFAVQMFDSLARKRGIVKQVLTKDELKDFYEQLTDQGFDNRLRTFFDMVDKNADGRLTAEEVKEIIALSASANKLSKIKERADEYTALIMEELDPTNLGYIEMEDLEALLLQSPSEAAARS”, the “soluble on expression in E. coli” value was “soluble”.

In the case of “AMNAYYIQDRLEAQSWARHYQQLAREEKEAELADDMEKGIPQHLFESLCIDHLQRHGASKKSITRAFDDDVEFQERMAEHIRYMVETIAHHQVDIDSEV”, the “soluble on expression in E. coli” value is “soluble”.

With “APIKVGINGFGRIGRMVFQAICDQGLIGTEIDVVAVVDMSTNAEYFAYQMKHDTVHGRPKYTVEAVKSSPSVETADVLVVNGHRIKCVKAQRNPADLPWGKLGVDYVIESTGLFTDKLKAEGHIKGGAKKVVISAPASGGAKTIVMGVNQHEYSPASHHVVSNASCTTNCLAPIVHVLTKENFGIETGLMTTIHSYTATQKTVDGVSLKDWRGGRAAAVNIIPSTTGAAKAVGMVIPSTKGKLTGMSFRVPTPDVSVVDLTFRATRDTSIQEIDKAIKKAAQTYMKGILGFTDEELVSADFINDNRSSVYDSKATLQNNLPGEKRFFKVVSWYDNEWAYSHRVVDLVRYMAAKDAASSKM”, the “soluble on expression in E. coli” value was “soluble”.
